# Measured values published in publication PMC11437077.
# T1: mouse PD-L2 with C-terminal biotin, Q9WUL5
# T1 chain: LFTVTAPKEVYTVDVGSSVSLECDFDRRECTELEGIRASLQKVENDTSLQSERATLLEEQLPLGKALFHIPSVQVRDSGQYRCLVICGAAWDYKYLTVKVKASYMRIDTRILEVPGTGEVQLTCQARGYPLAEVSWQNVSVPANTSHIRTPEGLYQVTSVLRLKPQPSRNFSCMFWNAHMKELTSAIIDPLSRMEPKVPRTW
# Columns and labels:
# [1] = molecular target: T1, mouse PD-L2 with C-terminal biotin, …; test: dynamic force spectroscopic analysis with BFP; settings: chain shown with the change
# [2] = molecular target: T1, mouse PD-L2 with C-terminal biotin, …; test: 2D effective affinity measurement, PD-L2-coated RBCs against PD-1-expressing CHO cells; settings: chain shown with the change, parent: est. 0.00098, read off a plot
# [3] = molecular target: T1, mouse PD-L2 with C-terminal biotin, …; test: effective bond lifetime (bond lifetime x bond survival probability, BFP data); settings: chain shown with the change, read off a plot
# [4] = molecular target: T1, mouse PD-L2 with C-terminal biotin, …; test: bond lifetime vs force measurement, single bonds (BFP); settings: chain shown with the change, read off a plot
Binder,other: F1/2 (rupture force) ([1]; n = 270 events),other: AcKa (2D effective affinity) ([2]; n = 12 cell pairs),other: F1/2 (rupture force) ([1]; n = 210 events),other: effective bond lifetime ([3]; force bin est. 2.2 pN),other: effective bond lifetime ([3]; force bin est. 4.3 pN),other: effective bond lifetime ([3]; force bin est. 8.3 pN),other: effective bond lifetime ([3]; force bin est. 11 pN),other: bond lifetime ([4]; force bin est. 2.2 pN),other: bond lifetime ([4]; force bin est. 4.3 pN),other: bond lifetime ([4]; force bin est. 11 pN),other: F1/2 (rupture force) ([1]; n = 345 events),other: AcKa (2D effective affinity) ([2]; n = 13 cell pairs)
"mouse PD-1 wild type expressed on CHO cells, Q02242 A132K (protein) LEVPNGPWRSLTFYPAWLTVSEGANATFTCSLSNWSEDLMLNWNRLSPSNQTEKQAAFCNGLSQPVQDARFQIIQLPNRHDFHMNILDTRRNDSGIYLCGAISLHPKKKIEESPGAELVVTERILETSTRYPSPSPKPEGRFQGMVIGIMSALVGIPVLLLLAWALAVFCSTSMSEARGAGSKDDTLKEEPSAAPVPSVAYEELDFQGREKTPELPTACVHTEYATIVFTEGLGASAMGRRGSADGLQGPRPPRHEDGHCSWPL",9.5 pN,0.00085 µm^4,,,,,,,,,,
"mouse PD-1 wild type expressed on CHO cells, Q02242 K131A (protein) LEVPNGPWRSLTFYPAWLTVSEGANATFTCSLSNWSEDLMLNWNRLSPSNQTEKQAAFCNGLSQPVQDARFQIIQLPNRHDFHMNILDTRRNDSGIYLCGAISLHPAAKIEESPGAELVVTERILETSTRYPSPSPKPEGRFQGMVIGIMSALVGIPVLLLLAWALAVFCSTSMSEARGAGSKDDTLKEEPSAAPVPSVAYEELDFQGREKTPELPTACVHTEYATIVFTEGLGASAMGRRGSADGLQGPRPPRHEDGHCSWPL",,0.0011 µm^4,9.4 pN,,,,,,,,,
"mouse PD-1 wild type expressed on CHO cells, Q02242 L128A; K131A (protein) LEVPNGPWRSLTFYPAWLTVSEGANATFTCSLSNWSEDLMLNWNRLSPSNQTEKQAAFCNGLSQPVQDARFQIIQLPNRHDFHMNILDTRRNDSGIYLCGAISAHPAAKIEESPGAELVVTERILETSTRYPSPSPKPEGRFQGMVIGIMSALVGIPVLLLLAWALAVFCSTSMSEARGAGSKDDTLKEEPSAAPVPSVAYEELDFQGREKTPELPTACVHTEYATIVFTEGLGASAMGRRGSADGLQGPRPPRHEDGHCSWPL",,,,0.16 s,0.14 s,0.04 s,0.015 s,0.16 s,0.15 s,0.05 s,9.7 pN,0.00088 µm^4
